Patent US20170044545, “APTAMER FOR BONDING TO AUTOTAXIN AND INHIBITING BIOLOGICAL ACTIVITY OF AUTOTAXIN, AND USE FOR SAME” (RIBOMIC INC., published 2017)

How the values were obtained:
[1] = target: T1, Autotaxin (ENPP2, NPP2) (Homo sapiens, UniProt Q13822 Q13822:36-863); assay: inhibition; pNP-TMP 1 mM, autotaxin 0.3 nM, 37 C 24 h, solution A
[2] = target: T1, Autotaxin (ENPP2, NPP2); assay: inhibition; NPP2 assay, pNP-TMP substrate, solution A (Ca, Mg), 37 C
[3] = target: T1, Autotaxin (ENPP2, NPP2); assay: inhibition; listing sequence lacks U7 printed in text
[4] = target: T1, Autotaxin (ENPP2, NPP2); assay: SPR
[5] = target: T1, Autotaxin (ENPP2, NPP2); assay: inhibition
[6] = target: T1, Autotaxin (ENPP2, NPP2); assay: SPR; not more than 10% of SEQ 4
[7] = target: FGF2 (UniProt P09038 P09038:135-288); assay: SPR; FGF2 immobilized about 1100 RU; specificity control; conditions: tags: PeproTech
Protocol: Whether the nucleic acids of SEQ ID NOs: 8 and 9 bind to autotaxin was evaluated by the surface plasmon resonance method. For the measurement, Biacore T100 manufactured by GE Healthcare was used, and the measurement was performed by the method shown below. About 2700 RU autotaxin was immobilized on a sensorchip surface of CM4 chip by using an amino coupling kit. The flow rate was 20 μL/min, and nucleic acids (20 μL) prepared to 0.3 μM were injected as an analyte. As a running buffer, solution A was used. In Table 1, nucleic acids showing a binding amount of not more than 10% of that of the aptamer of SEQ ID NO: 4 were considered not binding and marked with (−), and ones not less than that were considered binding and marked with (+).
Whether the aptamer shown in SEQ ID NO: 16(23) has a binding activity to FGF2 (PeproTech) was confirmed by the surface plasmon resonance method. Autotaxin was immobilized on a flow cell 2 and FGF2 was immobilized on a flow cell 3 (about 1100 RU), and the aptamer was injected. The rest was performed similarly to Example 2.

[8] = target: T1, Autotaxin (ENPP2, NPP2); assay: inhibition; text prints 3' CCUGGA, listing ccucgga

Sequence of FGF2 (P09038 135-288, one chain of several): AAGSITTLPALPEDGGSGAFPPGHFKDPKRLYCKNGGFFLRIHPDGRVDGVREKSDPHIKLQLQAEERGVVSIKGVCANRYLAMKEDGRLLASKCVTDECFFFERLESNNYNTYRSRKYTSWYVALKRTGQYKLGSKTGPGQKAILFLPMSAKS

B1: SEQ 4 aptamer (ssRNA)
RNA: GGGACCGCACUCUAAACGCUCUGAGGGAAACAGGUUUUGCUCCUCGGAGCGUGGACGAAGUGAGACGUAUCCG
modifications: 2'-F pyrimidines, 2'-OH purines
IC50 [1]: 7 nM

B2: SEQ 16(58) (mixed)
RNA: UCUGAGGGAAACAGGUUUUGCUCCUCGGA
modifications: dT1; 2'-deoxy G8,G14,G15,C23,C26; 2'-OMe G4,A5,G6,G7,A9,A11,A13,G20,C21,G27,G28,A29; 2'-OH A10 with PS; other pyrimidines 2'-F; 5' and 3' idT
IC50 [2]: 0.6 nM

UCUGAGUGAAACAGGUUUUGCUGCUCGGA (ssRNA, 2'-F pyrimidines, 2'-OH purines [2'-F at all C and U; A and G 2'-OH]) [SEQ 48]
IC50 [3]: 44 nM

UCUGAGGGAUACAGGUAUUGCUCCUCGGA (ssRNA, 2'-F pyrimidines, 2'-OH purines) [SEQ 27]
binding result [4]: no binding

UCUGAGGGAACAGGUUUUGCUCCUCGGA (ssRNA, 2'-F pyrimidines, 2'-OH purines) [SEQ 37]
binding result [4]: no binding
IC50 [5]: 720 nM

B3: SEQ 16(57) (mixed)
RNA: UCUGAGGGAAACAGGUUUUGCUCCUCGGA
modifications: dT1; 2'-deoxy G8,G14,G15,C23,C26; 2'-OMe G4,A5,G6,G7,A9,A11,A13,G20,U22,G27,G28,A29; 2'-OH A10 with PS; other pyrimidines 2'-F; 5' and 3' idT
IC50 [2]: 0.3 nM

UCUGAGGGAAUCAGGAUUUGCUCCUCGGA (ssRNA, 2'-F pyrimidines, 2'-OH purines) [SEQ 28]
binding result [4]: no binding

UCUGAGGGAAACAGGUUUGCUCCUCGGA (ssRNA, 2'-F pyrimidines, 2'-OH purines) [SEQ 36]
binding result [4]: no binding

UCUGAGGGAAGCAGGUUUUGCUCCUCGGA (ssRNA, 2'-F pyrimidines, 2'-OH purines) [SEQ 35]
binding result [4]: no binding

B4: SEQ 9 clone (ssRNA)
RNA: GGGUGGCAACAGGACAUGGAACGCGCCCCAACUGCUUGAAACUGGUUUUGCUGAGCAGUGAUGUGAGAUGCGUCUUCGUAC
modifications: 2'-F pyrimidines, 2'-OH purines
binding result [6]: no binding

B5: SEQ 16(60) (mixed)
RNA: UCUGAGGGAAACAGGUUUUGCUCCUCGGA
modifications: dT1; 2'-deoxy G8,G14,G15,C23,C26; 2'-OMe G4,A5,G6,G7,A9,A11,A13,U19,G20,G27,G28,A29; 2'-OH A10 with PS; other pyrimidines 2'-F; 5' and 3' idT
IC50 [2]: 23 nM

GGAAACAGGUUUUGCUC (ssRNA, 2'-F pyrimidines, 2'-OH purines) [SEQ 23]
binding result [6]: no binding

B6: SEQ 16(59) (mixed)
RNA: UCUGAGGGAAACAGGUUUUGCUCCUCGGA
modifications: dT1; 2'-deoxy G8,G14,G15,C23,C26; 2'-OMe G4,A5,G6,G7,A9,A11,A13,U16,G20,G27,G28,A29; 2'-OH A10 with PS; other pyrimidines 2'-F; 5' and 3' idT
IC50 [2]: 16 nM

UCUGAGGGAAACAGGUUUUGCUCCUCGGA (mixed, as 16(22) with 5' 40 kDa PEG (GL2-400GS2)-ssH linker instead of 5' idT) [SEQ 16(23)]
IC50 [5]: 1.1 nM
binding result [7]: no binding

UCUGAGGGAAACAGGUUCUGCUCCUCGGA (ssRNA, 2'-F pyrimidines, 2'-OH purines) [SEQ 46]
IC50 [8]: 50 nM

GGGAAACAGGUUUUGCUCC (ssRNA, 2'-F pyrimidines, 2'-OH purines) [SEQ 22]
IC50 [5]: 950 nM
binding result [6]: no binding
